Source: the supplement of paper PMC5998384

How the values were obtained:
HeLa Kyoto [1] = assay: solubility in G1/S (NP-40 vs SDS abundance) (log2 ratio); higher = more soluble; conditions: cell cycle stage: G1/S
HeLa Kyoto [2] = assay: melting temperature (median over replicates), in situ; higher = more thermally stable
HeLa Kyoto [3] = assay: thermal stability score vs G1/S (z-score of summed log2 fold changes over temperatures); higher = more thermally stable than in G1/S
HeLa Kyoto [4] = assay: solubility change mitosis vs G1/S (difference of NP-40 vs SDS log2 ratios) (log2 ratio difference); higher = more soluble in mitosis
[5] = cell cycle stage: early G1 (4.5 h after nocodazole release)
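Throughout, for melting temperature (median over replicates), in situ: HeLa Kyoto cells synchronized by double thymidine or nocodazole block, proteins quantified by TMT10plex mass spectrometry, three independent biological replicates.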
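Throughout, for solubility change mitosis vs G1/S (difference of NP-40 vs SDS log2 ratios): synchronized HeLa Kyoto cells (double thymidine block for G1/S, nocodazole release for mitosis), protein amounts in NP-40 versus SDS lysates quantified by mass spectrometry, three biological replicates.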
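Throughout, for solubility in G1/S (NP-40 vs SDS abundance): HeLa Kyoto cells arrested at G1/S by double thymidine block, proteins quantified by TMT10plex mass spectrometry in mild NP-40 versus SDS extracts, three biological replicates.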
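Throughout, for thermal stability score vs G1/S (z-score of summed log2 fold changes over temperatures): synchronized HeLa Kyoto cells, proteins quantified by TMT10plex mass spectrometry, three biological replicates, mitosis taken 0.5 h after nocodazole release, G1/S directly after double thymidine block.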

Row | Sequence | solubility in G1/S (log2) (HeLa Kyoto [1]) | melting temperature (HeLa Kyoto [2]; cell cycle stage: G1/S) [°C] | melting temperature (HeLa Kyoto [2]; cell cycle stage: mitosis) [°C] | thermal stability score (HeLa Kyoto [3]; [5]) | thermal stability score (HeLa Kyoto [3]; cell cycle stage: mitosis) | solubility change mitosis (log2) (HeLa Kyoto [4])
1 | MTTQQIDLQGPGPWGFRLVGGKDFEQPLAISRVTPGSKAALANLCIGDVITAIDGENTSNMTHLEAQNRIKGCTDNLTLTVARSEHKVWSPLVTEEGKRHPYKMNLASEPQEVLHIGSAHNRSAMPFTASPASSTTARVITNQYNNPAGLYSSENISNFNNALESKTAASGVEANSRPLDHAQPPSSLVIDKESEVYKMLQEKQELNEPPKQSTSFLVLQEILESEEKGDPNKPSGFRSVKAPVTKVAASIGNAQKLPMCDKCGTGIVGVFVKLRDRHRHPECYVCTDCGTNLKQKGHFFVEDQIYCEKHARERVTPPEGYEVVTVFPK [PDLIM1] | 0.455 | 55.6 | 56 | -1.51 | -0.369 | 0.147
2 | MTVFFKTLRNHWKKTTAGLCLLTWGGHWLYGKHCDNLLRRAACQEAQVFGNQLIPPNAQVKKATVFLNPAACKGKARTLFEKNAAPILHLSGMDVTIVKTDYEGQAKKLLELMENTDVIIVAGGDGTLQEVVTGVLRRTDEATFSKIPIGFIPLGETSSLSHTLFAESGNKVQHITDATLAIVKGETVPLDVLQIKGEKEQPVFAMTGLRWGSFRDAGVKVSKYWYLGPLKIKAAHFFSTLKEWPQTHQASISYTGPTERPPNEPEETPVQRPSLYRRILRRLASYWAQPQDALSQEVSPEVWKDVQLSTIELSITTRNNQLDPTSKEDFLNICIEPDTISKGDFITIGSRKVRNPKLHVEGTECLQASQCTLLIPEGAGGSFSIDSEEYEAMPVEVKLLPRKLQFFCDPRKREQMLTSPTQ [AGK] | 0.0337 | 53.6 | 53.6 | -0.493 | -1.02 | -0.034
3 | MVAPGLVLGLVLPLILWADRSAGIGFRFASYINNDMVLQKEPAGAVIWGFGTPGATVTVTLRQGQETIMKKVTSVKAHSDTWMVVLDPMKPGGPFEVMAQQTLEKINFTLRVHDVLFGDVWLCSGQSNMQMTVLQIFNATRELSNTAAYQSVRILSVSPIQAEQELEDLVAVDLQWSKPTSENLGHGYFKYMSAVCWLFGRHLYDTLQYPIGLIASSWGGTPIEAWSSGRSLKACGVPKQGSIPYDSVTGPSKHSVLWNAMIHPLCNMTLKGVVWYQGESNINYNTDLYNCTFPALIEDWRETFHRGSQGQTERFFPFGLVQLSSDLSKKSSDDGFPQIRWHQTADFGYVPNPKMPNTFMAVAMDLCDRDSPFGSIHPRDKQTVAYRLHLGARALAYGEKNLTFEGPLPEKIELLAHKGLLNLTYYQQIQVQKKDNKIFEISCCSDHRCKWLPASMNTVSTQSLTLAIDSCHGTVVALRYAWTTWPCEYKQCPLYHPSSALPAPPFIAFITDQGPGHQSNVAK [SIAE] | 0.569 | 58 | 57.9 | 1.01 | -0.521 | -0.103
4 | MVDYSVWDHIEVSDDEDETHPNIDTASLFRWRHQARVERMEQFQKEKEELDRGCRECKRKVAECQRKLKELEVAEGGKAELERLQAEAQQLRKEERSWEQKLEEMRKKEKSMPWNVDTLSKDGFSKSMVNTKPEKTEEDSEEVREQKHKTFVEKYEKQIKHFGMLRRWDDSQKYLSDNVHLVCEETANYLVIWCIDLEVEEKCALMEQVAHQTIVMQFILELAKSLKVDPRACFRQFFTKIKTADRQYMEGFNDELEAFKERVRGRAKLRIEKAMKEYEEEERKKRLGPGGLDPVEVYESLPEELQKCFDVKDVQMLQDAISKMDPTDAKYHMQRCIDSGLWVPNSKASEAKEGEEAGPGDPLLEAVPKTGDEKDVSV [CDC37] | 0.24 | 52.1 | 52.6 | 0.438 | -0.732 | 0.0658
5 | MVEADRPGKLFIGGLNTETNEKALEAVFGKYGRIVEVLLMKDRETNKSRGFAFVTFESPADAKDAARDMNGKSLDGKAIKVEQATKPSFESGRRGPPPPPRSRGPPRGLRGGRGGSGGTRGPPSRGGHMDDGGYSMNFNMSSSRGPLPVKRGPPPRSGGPPPKRSAPSGPVRSSSGMGGRAPVSRGRDSYGGPPRREPLPSRRDVYLSPRDDGYSTKDSYSSRDYPSSRDTRDYAPPPRDYTYRDYGHSSSRDDYPSRGYSDRDGYGRDRDYSDHPSGGSYRDSYESYGNSRSAPPTRGPPPSYGGSSRYDDYSSSRDGYGGSRDSYSSSRSDLYSSGRDRVGRQERGLPPSMERGYPPPRDSYSSSSRGAPRGGGRGGSRSDRGGGRSRY [RBMX] | -0.567 | 47.5 | 50.5 | -0.25 | 7.17 | 0.777
6 | MVELMFPLLLLLLPFLLYMAAPQIRKMLSSGVCTSTVQLPGKVVVVTGANTGIGKETAKELAQRGARVYLACRDVEKGELVAKEIQTTTGNQQVLVRKLDLSDTKSIRAFAKGFLAEEKHLHVLINNAGVMMCPYSKTADGFEMHIGVNHLGHFLLTHLLLEKLKESAPSRIVNVSSLAHHLGRIHFHNLQGEKFYNAGLAYCHSKLANILFTQELARRLKGSGVTTYSVHPGTVQSELVRHSSFMRWMWWLFSFFIKTPQQGAQTSLHCALTEGLEILSGNHFSDCHVAWVSAQARNETIARRLWDVSCDLLGLPID [RDH11] | -0.0695 | 49.5 | 50.2 | -0.184 | 0.26 | -0.137
7 | MVFLPLKWSLATMSFLLSSLLALLTVSTPSWCQSTEASPKRSDGTPFPWNKIRLPEYVIPVHYDLLIHANLTTLTFWGTTKVEITASQPTSTIILHSHHLQISRATLRKGAGERLSEEPLQVLEHPRQEQIALLAPEPLLVGLPYTVVIHYAGNLSETFHGFYKSTYRTKEGELRILASTQFEPTAARMAFPCFDEPAFKASFSIKIRREPRHLAISNMPLVKSVTVAEGLIEDHFDVTVKMSTYLVAFIISDFESVSKITKSGVKVSVYAVPDKINQADYALDAAVTLLEFYEDYFSIPYPLPKQDLAAIPDFQSGAMENWGLTTYRESALLFDAEKSSASSKLGITMTVAHELAHQWFGNLVTMEWWNDLWLNEGFAKFMEFVSVSVTHPELKVGDYFFGKCFDAMEVDALNSSHPVSTPVENPAQIREMFDDVSYDKGACILNMLREYLSADAFKSGIVQYLQKHSYKNTKNEDLWDSMASICPTDGVKGMDGFCSRSQHSSSSSHWHQEGVDVKTMMNTWTLQKGFPLITITVRGRNVHMKQEHYMKGSDGAPDTGYLWHVPLTFITSKSDMVHRFLLKTKTDVLILPEEVEWIKFNVGMNGYYIVHYEDDGWDSLTGLLKGTHTAVSSNDRASLINNAFQLVSIGKLSIEKALDLSLYLKHETEIMPVFQGLNELIPMYKLMEKRDMNEVETQFKAFLIRLLRDLIDKQTWTDEGSVSERMLRSQLLLLACVHNYQPCVQRAEGYFRKWKESNGNLSLPVDVTLAVFAVGAQSTEGWDFLYSKYQFSLSSTEKSQIEFALCRTQNKEKLQWLLDESFKGDKIKTQEFPQILTLIGRNPVGYPLAWQFLRKNWNKLVQKFELGSSSIAHMVMGTTNQFSTRTRLEEVKGFFSSLKENGSQLRCVQQTIETIEENIGWMDKNFDKIRVWLQSEKLERM [ERAP1] | 0.0916 | 53.9 | 54.4 | 3.59 | 5.54 | -0.172
8 | MVFPAKRFCLVPSMEGVRWAFSCGTWLPSRAEWLLAVRSIQPEEKERIGQFVFARDAKAAMAGRLMIRKLVAEKLNIPWNHIRLQRTAKGKPVLAKDSSNPYPNFNFNISHQGDYAVLAAEPELQVGIDIMKTSFPGRGSIPEFFHIMKRKFTNKEWETIRSFKDEWTQLDMFYRNWALKESFIKAIGVGLGFELQRLEFDLSPLNLDIGQVYKETRLFLDGEEEKEWAFEESKIDEHHFVAVALRKPDGSRHQDVPSQDDSKPTQRQFTILNFNDLMSSAVPMTPEDPSFWDCFCFTEEIPIRNGTKS [AASDHPPT] | 0.0817 | 52.3 | 52.4 | 0.145 | -0.453 | -0.124
9 | MVFYFTSSSVNSSAYTIYMGKDKYENEDLIKHGWPEDIWFHVDKLSSAHVYLRLHKGENIEDIPKEVLMDCAHLVKANSIQGCKMNNVNVVYTPWSNLKKTADMDVGQIGFHRQKDVKIVTVEKKVNEILNRLEKTKVERFPDLAAEKECRDREERNEKKAQIQEMKKREKEEMKKKREMDELRSYSSLMKVENMSSNQDGNDSDEFM [CCDC25] | 0.0307 | 50.4 | 50.6 | -0.0583 | -0.134 | -0.118
10 | MVGREKELSIHFVPGSCRLVEEEVNIPNRRVLVTGATGLLGRAVHKEFQQNNWHAVGCGFRRARPKFEQVNLLDSNAVHHIIHDFQPHVIVHCAAERRPDVVENQPDAASQLNVDASGNLAKEAAAVGAFLIYISSDYVFDGTNPPYREEDIPAPLNLYGKTKLDGEKAVLENNLGAAVLRIPILYGEVEKLEESAVTVMFDKVQFSNKSANMDHWQQRFPTHVKDVATVCRQLAEKRMLDPSIKGTFHWSGNEQMTKYEMACAIADAFNLPSSHLRPITDSPVLGAQRPRNAQLDCSKLETLGIGQRTPFRIGIKESLWPFLIDKRWRQTVFH [MAT2B] | 0.344 | 55.5 | 56.3 | -0.304 | -1.94 | -0.0436
